We go through 14 molecules from US20220088148A1 (HANMI PHARM, published 2022).

The labels stand for the following.
T1: human GIP receptor (human, UniProt P48546 22-466)
T1 sequence (looked up): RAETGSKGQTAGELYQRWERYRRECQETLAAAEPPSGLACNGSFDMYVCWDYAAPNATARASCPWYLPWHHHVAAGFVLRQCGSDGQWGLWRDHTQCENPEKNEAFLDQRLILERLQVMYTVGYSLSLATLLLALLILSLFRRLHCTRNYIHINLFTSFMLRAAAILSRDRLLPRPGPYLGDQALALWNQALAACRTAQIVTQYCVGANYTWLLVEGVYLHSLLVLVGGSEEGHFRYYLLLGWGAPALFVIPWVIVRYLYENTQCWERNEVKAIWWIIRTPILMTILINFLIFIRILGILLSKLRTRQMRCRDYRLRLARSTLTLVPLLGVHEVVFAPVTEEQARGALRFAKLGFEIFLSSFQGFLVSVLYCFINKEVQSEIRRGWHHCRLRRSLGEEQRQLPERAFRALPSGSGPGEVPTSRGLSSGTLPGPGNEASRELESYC

Bridges are numbered along the chain shown (N, C = ends). Where no end group is shown, it is not given here. [ ]: non-standard residue; d: D form. The star is where a group is joined. Acetyl(2-(4-imidazolyl)) = O=C(Cc1c[nH]cn1)*; Aib = CC(C)(N)C(=O)O

For one assay, the target named is human GLP-1 receptor (human, UniProt P43220 24-463). The assay can be described thus: cell-based or functional assay.
H[Aib]QGTFTSDVSSYLDGQAQKEFIAWLVKGC [triple agonist of SEQ ID NO: 2]: the “In vitro activity (%) vs. GLP-1, cAMP EC50” value is 5.9%.

For the molecule H[Aib]QGTFTSDYSKYLDEKAQKEFVQWLLDTC (bridge 16-20) [triple agonist of SEQ ID NO: 30], the “In vitro activity (%) vs. GLP-1, cAMP EC50” value turned out to be 142%.

As for H[Aib]QGTFTSDYSKYLDEKACKEFVQWLLAQ (bridge 16-20) [triple agonist of SEQ ID NO: 31], the “In vitro activity (%) vs. GLP-1, cAMP EC50” value is 135%.

For [Acetyl(2-(4-imidazolyl))]GQGTFTSDYSIQLDEIAVRDFVEWLKNGGPSSGAPPPSHG [triple agonist of SEQ ID NO: 14], the “In vitro activity (%) vs. GLP-1, cAMP EC50” value stood at 28%.

Y[Aib]QGTFTSDYSKALDEKAAKEFVQWLLDQHPSSGQPPPSC (bridge 16-20) [triple agonist of SEQ ID NO: 100]: the “In vitro activity (%) vs. GLP-1, cAMP EC50” value stood at 42.2%.

For the molecule H[Aib]QGTFTSDYSKYLDEKRAQEFVCWLLAQKGKKNDWKHNIT [triple agonist of SEQ ID NO: 28], the “In vitro activity (%) vs. GLP-1, cAMP EC50” value was 17.2%.

Take Y[Aib]QGTFTSDYSKCLDEKRAKEFVQWLLDHHPSSGQPPPS (bridge 16-20) [triple agonist of SEQ ID NO: 22]: the “In vitro activity (%) vs. GLP-1, cAMP EC50” value worked out at 20.1%.

Turning to Y[Aib]QGTFTSDYSKALDEKAAKEFVNWLLDQHPSSGQPPPSC (bridge 16-20) [triple agonist of SEQ ID NO: 101], the “In vitro activity (%) vs. GLP-1, cAMP EC50” value amounted to 23.2%.

For [Acetyl(2-(4-imidazolyl))]GQGTFTSDLSKQMDSERAREFIEWLKNTGPSSGAPPPSHG [triple agonist of SEQ ID NO: 18], the “In vitro activity (%) vs. GLP-1, cAMP EC50” value is under 0.1%.

As for [Acetyl(2-(4-imidazolyl))]GQGTFTSDLSKQMDEERAREFIEWLLAQKPSSGAPPPSHG [triple agonist of SEQ ID NO: 17], the “In vitro activity (%) vs. GLP-1, cAMP EC50” value was 0.2%.

With [Acetyl(2-(4-imidazolyl))]GQGTFTSDLSIQYEEEAQQDFVEWLKDTGPSSGAPPPSHG [triple agonist of SEQ ID NO: 20], the “In vitro activity (%) vs. GLP-1, cAMP EC50” value was under 0.1%.

As for [Acetyl(2-(4-imidazolyl))]GEGTFISDLSKYMDEQAVQLFVEWLMAGGPSSGAPPPSHG [triple agonist of SEQ ID NO: 12], the “In vitro activity (%) vs. GLP-1, cAMP EC50” value came out at 0.4%.

Consider [Acetyl(2-(4-imidazolyl))]GQGTFTSDLSIQYDSEHQRDFIEWLKDTGPSSGAPPPSHG [triple agonist of SEQ ID NO: 19], for which the “In vitro activity (%) vs. GLP-1, cAMP EC50” value is under 0.1%.

Regarding Y[Aib]QGTFTSDYSKYLDEKRAKEFVQWLLCHHPSSGQPPPS (bridge 16-20) [triple agonist of SEQ ID NO: 95], the “In vitro activity (%) vs. GLP-1, cAMP EC50” value was 2.1%.

The target of the next assay is human GCG receptor (human, UniProt P47871 26-477). The assay can be described thus: cell-based or functional assay.
Sequence of human GCG receptor (P47871 26-477): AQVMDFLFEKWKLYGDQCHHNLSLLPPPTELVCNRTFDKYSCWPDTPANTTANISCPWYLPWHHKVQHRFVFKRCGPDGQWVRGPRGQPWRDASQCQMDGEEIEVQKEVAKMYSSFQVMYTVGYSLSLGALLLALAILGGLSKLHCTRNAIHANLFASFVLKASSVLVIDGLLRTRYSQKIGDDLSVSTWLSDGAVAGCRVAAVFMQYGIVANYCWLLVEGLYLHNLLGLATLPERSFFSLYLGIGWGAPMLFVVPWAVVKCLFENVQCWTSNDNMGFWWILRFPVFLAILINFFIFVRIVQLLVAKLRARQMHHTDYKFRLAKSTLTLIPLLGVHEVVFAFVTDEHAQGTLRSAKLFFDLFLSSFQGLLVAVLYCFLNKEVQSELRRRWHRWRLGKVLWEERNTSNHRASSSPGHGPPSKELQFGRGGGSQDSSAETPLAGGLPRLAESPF
In the case of H[Aib]QGTFTSDVSSYLDGQAQKEFIAWLVKGC [triple agonist of SEQ ID NO: 2], the “In vitro activity (%) vs. Glucagon, cAMP EC50” value is under 0.1%.

As to H[Aib]QGTFTSDYSKYLDEKAQKEFVQWLLDTC (bridge 16-20) [triple agonist of SEQ ID NO: 30], the “In vitro activity (%) vs. Glucagon, cAMP EC50” value was determined as 0.7%.

H[Aib]QGTFTSDYSKYLDEKACKEFVQWLLAQ (bridge 16-20) [triple agonist of SEQ ID NO: 31]: the “In vitro activity (%) vs. Glucagon, cAMP EC50” value was found to be 2.2%.

[Acetyl(2-(4-imidazolyl))]GQGTFTSDYSIQLDEIAVRDFVEWLKNGGPSSGAPPPSHG [triple agonist of SEQ ID NO: 14]: the “In vitro activity (%) vs. Glucagon, cAMP EC50” value was under 0.1%.

Y[Aib]QGTFTSDYSKALDEKAAKEFVQWLLDQHPSSGQPPPSC (bridge 16-20) [triple agonist of SEQ ID NO: 100]: the “In vitro activity (%) vs. Glucagon, cAMP EC50” value amounted to 12.7%.

For H[Aib]QGTFTSDYSKYLDEKRAQEFVCWLLAQKGKKNDWKHNIT [triple agonist of SEQ ID NO: 28], the “In vitro activity (%) vs. Glucagon, cAMP EC50” value was determined as 1.6%.

Consider Y[Aib]QGTFTSDYSKCLDEKRAKEFVQWLLDHHPSSGQPPPS (bridge 16-20) [triple agonist of SEQ ID NO: 22], for which the “In vitro activity (%) vs. Glucagon, cAMP EC50” value was 140%.

Turning to Y[Aib]QGTFTSDYSKALDEKAAKEFVNWLLDQHPSSGQPPPSC (bridge 16-20) [triple agonist of SEQ ID NO: 101], the “In vitro activity (%) vs. Glucagon, cAMP EC50” value was 13.9%.

For the molecule [Acetyl(2-(4-imidazolyl))]GQGTFTSDLSKQMDSERAREFIEWLKNTGPSSGAPPPSHG [triple agonist of SEQ ID NO: 18], the “In vitro activity (%) vs. Glucagon, cAMP EC50” value was under 0.1%.

As for [Acetyl(2-(4-imidazolyl))]GQGTFTSDLSKQMDEERAREFIEWLLAQKPSSGAPPPSHG [triple agonist of SEQ ID NO: 17], the “In vitro activity (%) vs. Glucagon, cAMP EC50” value was under 0.1%.

For [Acetyl(2-(4-imidazolyl))]GQGTFTSDLSIQYEEEAQQDFVEWLKDTGPSSGAPPPSHG [triple agonist of SEQ ID NO: 20], the “In vitro activity (%) vs. Glucagon, cAMP EC50” value was under 0.1%.

On to [Acetyl(2-(4-imidazolyl))]GEGTFISDLSKYMDEQAVQLFVEWLMAGGPSSGAPPPSHG [triple agonist of SEQ ID NO: 12], for which the “In vitro activity (%) vs. Glucagon, cAMP EC50” value was under 0.1%.

As to [Acetyl(2-(4-imidazolyl))]GQGTFTSDLSIQYDSEHQRDFIEWLKDTGPSSGAPPPSHG [triple agonist of SEQ ID NO: 19], the “In vitro activity (%) vs. Glucagon, cAMP EC50” value was under 0.1%.

For Y[Aib]QGTFTSDYSKYLDEKRAKEFVQWLLCHHPSSGQPPPS (bridge 16-20) [triple agonist of SEQ ID NO: 95], the “In vitro activity (%) vs. Glucagon, cAMP EC50” value came out at 0.4%.

In the next assay the target is T1, human GIP receptor. The assay can be described thus: cell-based or functional assay.
Regarding H[Aib]QGTFTSDVSSYLDGQAQKEFIAWLVKGC [triple agonist of SEQ ID NO: 2], the “In vitro activity (%) vs. GIP, cAMP EC50” value was under 0.1%.

For H[Aib]QGTFTSDYSKYLDEKAQKEFVQWLLDTC (bridge 16-20) [triple agonist of SEQ ID NO: 30], the “In vitro activity (%) vs. GIP, cAMP EC50” value turned out to be 0.8%.

Regarding H[Aib]QGTFTSDYSKYLDEKACKEFVQWLLAQ (bridge 16-20) [triple agonist of SEQ ID NO: 31], the “In vitro activity (%) vs. GIP, cAMP EC50” value turned out to be 2.4%.

Turning to [Acetyl(2-(4-imidazolyl))]GQGTFTSDYSIQLDEIAVRDFVEWLKNGGPSSGAPPPSHG [triple agonist of SEQ ID NO: 14], the “In vitro activity (%) vs. GIP, cAMP EC50” value is under 0.1%.

Consider Y[Aib]QGTFTSDYSKALDEKAAKEFVQWLLDQHPSSGQPPPSC (bridge 16-20) [triple agonist of SEQ ID NO: 100], for which the “In vitro activity (%) vs. GIP, cAMP EC50” value was 118%.

As for H[Aib]QGTFTSDYSKYLDEKRAQEFVCWLLAQKGKKNDWKHNIT [triple agonist of SEQ ID NO: 28], the “In vitro activity (%) vs. GIP, cAMP EC50” value was under 0.1%.

Turning to Y[Aib]QGTFTSDYSKCLDEKRAKEFVQWLLDHHPSSGQPPPS (bridge 16-20) [triple agonist of SEQ ID NO: 22], the “In vitro activity (%) vs. GIP, cAMP EC50” value is 59.7%.

As for Y[Aib]QGTFTSDYSKALDEKAAKEFVNWLLDQHPSSGQPPPSC (bridge 16-20) [triple agonist of SEQ ID NO: 101], the “In vitro activity (%) vs. GIP, cAMP EC50” value worked out at 40.1%.

Regarding [Acetyl(2-(4-imidazolyl))]GQGTFTSDLSKQMDSERAREFIEWLKNTGPSSGAPPPSHG [triple agonist of SEQ ID NO: 18], the “In vitro activity (%) vs. GIP, cAMP EC50” value was under 0.1%.

On to [Acetyl(2-(4-imidazolyl))]GQGTFTSDLSKQMDEERAREFIEWLLAQKPSSGAPPPSHG [triple agonist of SEQ ID NO: 17], for which the “In vitro activity (%) vs. GIP, cAMP EC50” value is under 0.1%.

For [Acetyl(2-(4-imidazolyl))]GQGTFTSDLSIQYEEEAQQDFVEWLKDTGPSSGAPPPSHG [triple agonist of SEQ ID NO: 20], the “In vitro activity (%) vs. GIP, cAMP EC50” value was under 0.1%.

For the molecule [Acetyl(2-(4-imidazolyl))]GEGTFISDLSKYMDEQAVQLFVEWLMAGGPSSGAPPPSHG [triple agonist of SEQ ID NO: 12], the “In vitro activity (%) vs. GIP, cAMP EC50” value was under 0.1%.

With [Acetyl(2-(4-imidazolyl))]GQGTFTSDLSIQYDSEHQRDFIEWLKDTGPSSGAPPPSHG [triple agonist of SEQ ID NO: 19], the “In vitro activity (%) vs. GIP, cAMP EC50” value was under 0.1%.

On to Y[Aib]QGTFTSDYSKYLDEKRAKEFVQWLLCHHPSSGQPPPS (bridge 16-20) [triple agonist of SEQ ID NO: 95], for which the “In vitro activity (%) vs. GIP, cAMP EC50” value was under 0.1%.
